# In paper PMC4675670:
# B1: human EPRS (bifunctional glutamyl-prolyl-tRNA synthetase) (Homo sapiens) (protein)
# chain: MATLSLTVNSGDPPLGALLAVEHVKDDVSISVEEGKENILHVSENVIFTDVNSILRYLARVATTAGLYGSNLMEHTEIDHWLEFSATKLSSCDSFTSTINELNHCLSLRTYLVGNSLSLADLCVWATLKGNAAWQEQLKQKKAPVHVKRWFGFLEAQQAFQSVGTKWDVSTTKARVAPEKKQDVGKFVELPGAEMGKVTVRFPPEASGYLHIGHAKAALLNQHYQVNFKGKLIMRFDDTNPEKEKEDFEKVILEDVAMLHIKPDQFTYTSDHFETIMKYAEKLIQEGKAYVDDTPAEQMKAEREQRIDSKHRKNPIEKNLQMWEEMKKGSQFGQSCCLRAKIDMSSNNGCMRDPTLYRCKIQPHPRTGNKYNVYPTYDFACPIVDSIEGVTHALRTTEYHDRDEQFYWIIEALGIRKPYIWEYSRLNLNNTVLSKRKLTWFVNEGLVDGWDDPRFPTVRGVLRRGMTVEGLKQFIAAQGSSRSVVNMEWDKIWAFNKKVIDPVAPRYVALLKKEVIPVNVPEAQEEMKEVAKHPKNPEVGLKPVWYSPKVFIEGADAETFSEGEMVTFINWGNLNITKIHKNADGKIISLDAKLNLENKDYKKTTKVTWLAETTHALPIPVICVTYEHLITKPVLGKDEDFKQYVNKNSKHEELMLGDPCLKDLKKGDIIQLQRRGFFICDQPYEPVSPYSCKEAPCVLIYIPDGHTKEMPTSGSKEKTKVEATKNETSAPFKERPTPSLNNNCTTSEDSLVLYNRVAVQGDVVRELKAKKAPKEDVDAAVKQLLSLKAEYKEKTGQEYKPGNPPAEIGQNISSNSSASILESKSLYDEVAAQGEVVRKLKAEKSPKAKINEAVECLLSLKAQYKEKTGKEYIPGQPPLSQSSDSSPTRNSEPAGLETPEAKVLFDKVASQGEVVRKLKTEKAPKDQVDIAVQELLQLKAQYKSLIGVEYKPVSATGAEDKDKKKKEKENKSEKQNKPQKQNDGQRKDPSKNQGGGLSSSGAGEGQGPKKQTRLGLEAKKEENLADWYSQVITKSEMIEYHDISGCYILRPWAYAIWEAIKDFFDAEIKKLGVENCYFPMFVSQSALEKEKTHVADFAPEVAWVTRSGKTELAEPIAIRPTSETVMYPAYAKWVQSHRDLPIKLNQWCNVVRWEFKHPQPFLRTREFLWQEGHSAFATMEEAAEEVLQILDLYAQVYEELLAIPVVKGRKTEKEKFAGGDYTTTIEAFISASGRAIQGGTSHHLGQNFSKMFEIVFEDPKIPGEKQFAYQNSWGLTTRTIGVMTMVHGDNMGLVLPPRVACVQVVIIPCGITNALSEEDKEALIAKCNDYRRRLLSVNIRVRADLRDNYSPGWKFNHWELKGVPIRLEVGPRDMKSCQFVAVRRDTGEKLTVAENEAETKLQAILEDIQVTLFTRASEDLKTHMVVANTMEDFQKILDSGKIVQIPFCGEIDCEDWIKKTTARDQDLEPGAPSMGAKSLCIPFKPLCELQPGAKCVCGKNPAKYYTLFGRSY
# Substrate: O=C(O)[C@@H]1CCCN1
# Assay: enzyme kinetics, Km
# Assay type: biochemical, Homo sapiens
protein,measurement,value
B1,Km,135.4 µM
